Laboratory results from publication PMC3907034.

Biological target: HIV-1 P7L-S40A-Gag, full-length (HIV-1)
Assay: two-hybrid; Matchmaker GAL4 system, S. cerevisiae Y190, quantitative liquid beta-galactosidase assay; units normalized to P7L with Alix (panel B) or WT Gag with Alix (panel C)

Substance: full-length Alix (from UniProt Q8WUM4 1-868) (natural protein)
- fold increase of binding (beta-galactosidase units) against P7L-Gag with Alix: 7 fold
